Assays:
[1] = biological target: Recombinant CypD Ser31→Ala mutant, P30405
[2] = biological target: Recombinant CypD Ser31/Ser123→Ala double mutant, P30405
[3] = biological target: Recombinant GST-CypD (wild type), P30405
[4] = biological target: Recombinant CypD Ser123→Ala mutant, P30405
Chain of Recombinant CypD Ser123→Ala mutant, P30405 (P30405 whole entry, looked up, change not shown): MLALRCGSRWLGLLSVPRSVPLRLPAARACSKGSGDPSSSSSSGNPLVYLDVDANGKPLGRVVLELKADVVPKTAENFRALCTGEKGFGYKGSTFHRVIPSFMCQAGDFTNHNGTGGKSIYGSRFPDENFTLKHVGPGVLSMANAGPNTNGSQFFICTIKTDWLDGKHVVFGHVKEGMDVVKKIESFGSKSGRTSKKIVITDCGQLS

Chain of Recombinant CypD Ser31→Ala mutant, P30405 (P30405 whole entry, looked up, change not shown): as above
Chain of Recombinant GST-CypD (wild type), P30405 (P30405 whole entry): as the sequence (P30405 whole entry, looked up, change not shown) above
Chain of Recombinant CypD Ser31/Ser123→Ala double mutant, P30405 (P30405 whole entry, looked up, change not shown): as above

B1: active Akt2 (protein)
chain: MNEVSVIKEGWLHKRGEYIKTWRPRYFLLKSDGSFIGYKERPEAPDQTLPPLNNFSVAECQLMKTERPRPNTFVIRCLQWTTVIERTFHVDSPDEREEWMRAIQMVANSLKQRAPGEDPMDYKCGSPSDSSTTEEMEVAVSKARAKVTMNDFDYLKLLGKGTFGKVILVREKATGRYYAMKILRKEVIIAKDEVAHTVTESRVLQNTRHPFLTALKYAFQTHDRLCFVMEYANGGELFFHLSRERVFTEERARFYGAEIVSALEYLHSRDVVYRDIKLENLMLDKDGHIKITDFGLCKEGISDGATMKTFCGTPEYLAPEVLEDNDYGRAVDWWGLGVVMYEMMCGRLPFYNQDHERLFELILMEEIRFPRTLSPEAKSLLAGLLKKDPKQRLGGGPSDAKEVMEHRFFLSINWQDVVQKKLLPPFKPQVTSEVDTRYFDDEFTAQSITITPPDRYDSLGLLELDQRTHFPQFSYSASIRE
For B1, the “kinase assay with recombinant proteins, 32P-ATP, autoradiography” value (“kinase assay with recombinant proteins” for short) [1] was “abolished Akt phosphorylation of CypD”, the “kinase assay with recombinant proteins” value [2] was “abolished Akt phosphorylation of CypD” and the “kinase assay with recombinant proteins” value [3] was “readily phosphorylated”. For the same protein, the “kinase assay with recombinant proteins” value [4] was “readily phosphorylated”.

From US20240342199
